Experimental data reported in patent CN114349855A (BAISIS MEDICAL DIAGNOSIS SCIENCE AND TECH BEIJING LIMITED …, dated 2022).

B1: 抗体 克隆号7D7G3D4 (antibody, V domains shown)
VH: EVQLVESGGGLVQPGGSLRLSCAASGLTVSSNHMSWVRQAPGKGLEWVSIIYSGGSTYYADSVKGRFTISRDNSKNTLYLQMDSLRAEDTTVYYCARAQGGWELPGAGYYYFNGMDFWGQGTTVTVSS
VL: DIQMTQSPSSLSASVGDRVTITCRASQSISTYLNWYQQKPGKAPKLLIYAASNLQSGVPSRFSGSASGTDFTLTISSLQPEDFATYFCQQSYSTSFTFGPGTKVDIK
B2: 抗体 克隆号9A5D9 22G3 (antibody, V domains shown)
VH: EVQLVESGGGLVKPGGSLRLSCAASGFTFSSYSMNWVRQAPGKGLEWVSSISRSSSYIYYADSVMGRFTISRDNAKNSLYLQMNSLRADDTAVYYCARDRGSGNYYVDGLDIWGQGTMVTVSS
VL: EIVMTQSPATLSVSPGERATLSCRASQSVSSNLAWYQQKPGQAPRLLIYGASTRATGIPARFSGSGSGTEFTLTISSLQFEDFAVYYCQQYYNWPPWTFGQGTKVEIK
B3: 抗体 克隆号9A5F6 23F1 (antibody, V domains shown)
VH: QVQLVESGGGVVQPGRSLRLSCAASGFTFSSYAMYWVRQAPGKGLECVAGISYDGSNKYYADSVKGRFTISRENSKNTLYLQMNSLISEDTAVYYCARAEWDYWGQGTLVTVSS
VL: SYELTQPSSVSVSPGQTARITCSGDVLAKKYARWFQQKPGQAPVLVIYKDSERPSGIPERFSGSSSGTTVTLTISGAQVEDEADYYCYSAADNNLGVFGGGTKL

Molecular target: T1, 新型冠状病毒野生型Spike蛋白 (新型冠状病毒 (SARS-CoV-2) 野生型, UniProt P0DTC2 16-1213)
T1 construct: also called 野生型S蛋白
Experiment: ELISA, S protein coated at 2 μg/mL

Binder	binding result
B1	no binding (tested: 1 μg/mL)
B2	no binding (tested: 1 μg/mL)
B3	no binding (tested: 1 μg/mL)
